From PMC5039092 (FEBS letters, 2016)

Assays:
[1] = molecular target: the molecule itself; assay: SDS-PAGE and Western blot
[2] = molecular target: the molecule itself; assay: SEC

Row | Protein | binding result [1] | binding result [2]
1 | C394S mutant of full length human adenosine A2a receptor with a C-terminal 10 histidine tag (receptor, UniProt P29274 1-412, looked up) MPIMGSSVYITVELAIAVLAILGNVLVCWAVWLNSNLQNVTNYFVVSLAAADIAVGVLAIPFAITISTGFCAACHGCLFIACFVLVLTQSSIFSLLAIAIDRYIAIRIPLRYNGLVTGTRAKGIIAICWVLSFAIGLTPMLGWNNCGQPKEGKNHSQGCGEGQVACLFEDVVPMNYMVYFNFFACVLVPLLLMLGVYLRIFLAARRQLKQMESQPLPGERARSTLQKEVHAAKSLAIIVGLFALCWLPLHIINCFTFFCPDCSHAPLWLMYLAIVLSHTNSVVNPFIYAYRIREFRQTFRKIIRSHVLRQQEPFKAAGTSARVLAAHGSDGEQVSLRLNGHPPGVWANGSAPHPERRPNGYALGLVSGGSAQESQGNTGLPDVELLSHELKGVSPEPPGLDDPLAQDGAGVS | binds | 
2 | spin labeled wild type full length human adenosine A2a receptor with a C-terminal 10 histidine tag (receptor, UniProt P29274 1-412, looked up, nitroxide radical MTSL spin label attached to free cysteines (thiol of C394)) MPIMGSSVYITVELAIAVLAILGNVLVCWAVWLNSNLQNVTNYFVVSLAAADIAVGVLAIPFAITISTGFCAACHGCLFIACFVLVLTQSSIFSLLAIAIDRYIAIRIPLRYNGLVTGTRAKGIIAICWVLSFAIGLTPMLGWNNCGQPKEGKNHSQGCGEGQVACLFEDVVPMNYMVYFNFFACVLVPLLLMLGVYLRIFLAARRQLKQMESQPLPGERARSTLQKEVHAAKSLAIIVGLFALCWLPLHIINCFTFFCPDCSHAPLWLMYLAIVLSHTNSVVNPFIYAYRIREFRQTFRKIIRSHVLRQQEPFKAAGTSARVLAAHGSDGEQVSLRLNGHPPGVWANGSAPHPERRPNGYALGLVSGGSAQESQGNTGLPDVELLSHELKGVCPEPPGLDDPLAQDGAGVS |  | binds
